Data taken from patent publication US8242083B2, “Kinase substrates” (PerkinElmer Health Sciences, Inc., priority 2008, dated 2012).

Legend:
Type in all cases: biochemical
EphB1 = target: T1, EphB1 (Homo sapiens, UniProt P54762); test: TR-FRET kinase assay, EphB1; conditions: Kinase Concentration 0.5 nM; 50 nM ULight-labeled substrate, 200 micromolar ATP, 2 hours
T1 sequence (P54762 18-984): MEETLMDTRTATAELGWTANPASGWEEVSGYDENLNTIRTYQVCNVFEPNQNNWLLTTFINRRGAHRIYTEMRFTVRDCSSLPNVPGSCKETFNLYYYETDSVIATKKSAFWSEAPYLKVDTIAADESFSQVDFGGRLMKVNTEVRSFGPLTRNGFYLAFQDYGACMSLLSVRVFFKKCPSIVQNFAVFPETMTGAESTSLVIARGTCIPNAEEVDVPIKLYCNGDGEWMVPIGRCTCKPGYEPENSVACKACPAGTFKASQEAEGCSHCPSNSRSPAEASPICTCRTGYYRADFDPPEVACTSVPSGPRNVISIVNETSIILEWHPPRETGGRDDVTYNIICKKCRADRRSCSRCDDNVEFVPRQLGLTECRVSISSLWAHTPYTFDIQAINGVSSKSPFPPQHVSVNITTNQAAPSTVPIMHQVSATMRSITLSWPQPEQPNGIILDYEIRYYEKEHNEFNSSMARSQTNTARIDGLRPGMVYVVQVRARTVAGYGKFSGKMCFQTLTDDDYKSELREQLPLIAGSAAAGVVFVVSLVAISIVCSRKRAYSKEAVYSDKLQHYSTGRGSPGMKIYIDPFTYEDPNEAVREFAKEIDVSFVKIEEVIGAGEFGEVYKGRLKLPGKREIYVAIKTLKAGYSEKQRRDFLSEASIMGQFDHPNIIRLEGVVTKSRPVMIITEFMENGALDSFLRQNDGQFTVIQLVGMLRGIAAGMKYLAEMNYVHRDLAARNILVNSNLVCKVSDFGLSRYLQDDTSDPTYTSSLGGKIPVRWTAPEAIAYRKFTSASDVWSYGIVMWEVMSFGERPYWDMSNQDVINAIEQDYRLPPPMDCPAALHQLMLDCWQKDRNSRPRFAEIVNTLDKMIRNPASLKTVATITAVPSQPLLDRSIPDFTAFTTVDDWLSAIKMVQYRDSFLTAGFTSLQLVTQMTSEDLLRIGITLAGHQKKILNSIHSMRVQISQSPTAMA
Method: (§1) TR-FRET kinase assays are performed under standardized conditions: various individual kinases are incubated with 50 nM of kinase substrate BRB1 labeled with the TR-FRET acceptor dye ULight (PerkinElmer) and 200 micromolar ATP in 10 μL of kinase assay buffer (50 mM HEPES pH7.5, 10 mM MgCl2, 3 mM MnCl2, 1 mM EGTA, 2 mM DTT and 0.01% Tween-20) for 2 hours at room temperature. Reactions are stopped with EDTA, and anti-phospho-tyrosine antibodies (clone PT66) labeled with the TR-FRET europium chelate donor dye are added to a final concentration of 2 nM in a final volume of 20 μL. The TR-FRET signal emitted at 665 nm is read one hour after the addition of antibodies using a TR-FRET plate reader such as the Envision® Multilabel Plate reader (PerkinElmer). The emitted signal at 665 nm is proportional to the extent of peptide phosphorylation, Control reactions indicative of background are performed excluding ATP from the reaction.
(§2) Assay conditions are identical to those used described for FIG. 1.

FAK = FAK (Homo sapiens, UniProt Q05397); test: TR-FRET kinase assay, FAK; conditions: Kinase Concentration 3 nM; 50 nM ULight-labeled substrate, 200 micromolar ATP, 2 hours
Chain of FAK (Q05397 whole entry, species assumed): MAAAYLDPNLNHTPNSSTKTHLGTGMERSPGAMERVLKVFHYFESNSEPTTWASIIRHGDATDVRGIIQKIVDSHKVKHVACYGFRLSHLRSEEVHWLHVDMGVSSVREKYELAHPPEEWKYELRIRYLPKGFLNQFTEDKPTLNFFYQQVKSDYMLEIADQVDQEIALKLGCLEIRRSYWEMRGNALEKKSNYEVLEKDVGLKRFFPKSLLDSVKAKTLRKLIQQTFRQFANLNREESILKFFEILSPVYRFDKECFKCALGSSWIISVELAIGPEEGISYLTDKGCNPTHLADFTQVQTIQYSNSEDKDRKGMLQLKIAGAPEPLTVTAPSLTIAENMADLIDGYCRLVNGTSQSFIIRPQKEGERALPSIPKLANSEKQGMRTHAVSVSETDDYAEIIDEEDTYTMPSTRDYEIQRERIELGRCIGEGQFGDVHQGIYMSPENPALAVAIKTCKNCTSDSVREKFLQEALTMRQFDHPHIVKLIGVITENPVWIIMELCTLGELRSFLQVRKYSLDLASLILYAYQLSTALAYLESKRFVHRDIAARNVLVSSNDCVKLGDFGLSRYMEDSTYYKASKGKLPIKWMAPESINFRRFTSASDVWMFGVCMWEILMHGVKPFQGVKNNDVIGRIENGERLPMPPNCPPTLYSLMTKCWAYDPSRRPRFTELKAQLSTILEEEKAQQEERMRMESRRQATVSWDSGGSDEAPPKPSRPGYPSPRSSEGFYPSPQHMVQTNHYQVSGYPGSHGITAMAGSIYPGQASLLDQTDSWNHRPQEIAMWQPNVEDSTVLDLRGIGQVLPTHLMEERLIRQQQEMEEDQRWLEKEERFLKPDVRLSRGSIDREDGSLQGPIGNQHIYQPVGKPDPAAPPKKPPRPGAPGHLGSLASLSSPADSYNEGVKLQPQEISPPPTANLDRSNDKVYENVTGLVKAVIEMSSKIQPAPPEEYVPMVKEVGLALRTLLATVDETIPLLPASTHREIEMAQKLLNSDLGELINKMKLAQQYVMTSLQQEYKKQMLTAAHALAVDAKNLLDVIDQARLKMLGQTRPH
Method: as §1, §2

HER2 = HER2 (Homo sapiens, UniProt P04626); test: TR-FRET kinase assay, HER2; conditions: Kinase Concentration 10 nM; 50 nM ULight-labeled substrate, 200 micromolar ATP, 2 hours
Method: as §1, §2

LCK = LCK (Homo sapiens, UniProt P06239); test: TR-FRET kinase assay, LCK; conditions: Kinase Concentration 0.5 nM; 50 nM ULight-labeled substrate, 200 micromolar ATP, 2 hours
Chain of LCK (P06239 whole entry, species assumed): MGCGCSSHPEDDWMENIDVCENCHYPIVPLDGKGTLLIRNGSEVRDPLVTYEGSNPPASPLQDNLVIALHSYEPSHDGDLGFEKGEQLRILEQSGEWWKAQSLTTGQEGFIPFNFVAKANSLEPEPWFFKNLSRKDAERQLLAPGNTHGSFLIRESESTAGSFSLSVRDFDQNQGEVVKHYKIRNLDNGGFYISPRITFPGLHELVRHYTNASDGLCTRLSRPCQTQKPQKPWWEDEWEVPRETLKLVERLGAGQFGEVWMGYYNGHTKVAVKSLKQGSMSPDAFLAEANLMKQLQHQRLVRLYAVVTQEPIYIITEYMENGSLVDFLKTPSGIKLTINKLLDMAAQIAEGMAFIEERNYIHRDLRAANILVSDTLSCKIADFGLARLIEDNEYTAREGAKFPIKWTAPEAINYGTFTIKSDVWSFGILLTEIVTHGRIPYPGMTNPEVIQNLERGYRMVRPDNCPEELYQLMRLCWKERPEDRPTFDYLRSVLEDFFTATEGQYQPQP
Method: as §1, §2

MET = MET (Homo sapiens, UniProt P08581); test: TR-FRET kinase assay, MET; conditions: Kinase Concentration 0.5 nM; 50 nM ULight-labeled substrate, 200 micromolar ATP, 2 hours
Chain of MET (P08581 25-1390): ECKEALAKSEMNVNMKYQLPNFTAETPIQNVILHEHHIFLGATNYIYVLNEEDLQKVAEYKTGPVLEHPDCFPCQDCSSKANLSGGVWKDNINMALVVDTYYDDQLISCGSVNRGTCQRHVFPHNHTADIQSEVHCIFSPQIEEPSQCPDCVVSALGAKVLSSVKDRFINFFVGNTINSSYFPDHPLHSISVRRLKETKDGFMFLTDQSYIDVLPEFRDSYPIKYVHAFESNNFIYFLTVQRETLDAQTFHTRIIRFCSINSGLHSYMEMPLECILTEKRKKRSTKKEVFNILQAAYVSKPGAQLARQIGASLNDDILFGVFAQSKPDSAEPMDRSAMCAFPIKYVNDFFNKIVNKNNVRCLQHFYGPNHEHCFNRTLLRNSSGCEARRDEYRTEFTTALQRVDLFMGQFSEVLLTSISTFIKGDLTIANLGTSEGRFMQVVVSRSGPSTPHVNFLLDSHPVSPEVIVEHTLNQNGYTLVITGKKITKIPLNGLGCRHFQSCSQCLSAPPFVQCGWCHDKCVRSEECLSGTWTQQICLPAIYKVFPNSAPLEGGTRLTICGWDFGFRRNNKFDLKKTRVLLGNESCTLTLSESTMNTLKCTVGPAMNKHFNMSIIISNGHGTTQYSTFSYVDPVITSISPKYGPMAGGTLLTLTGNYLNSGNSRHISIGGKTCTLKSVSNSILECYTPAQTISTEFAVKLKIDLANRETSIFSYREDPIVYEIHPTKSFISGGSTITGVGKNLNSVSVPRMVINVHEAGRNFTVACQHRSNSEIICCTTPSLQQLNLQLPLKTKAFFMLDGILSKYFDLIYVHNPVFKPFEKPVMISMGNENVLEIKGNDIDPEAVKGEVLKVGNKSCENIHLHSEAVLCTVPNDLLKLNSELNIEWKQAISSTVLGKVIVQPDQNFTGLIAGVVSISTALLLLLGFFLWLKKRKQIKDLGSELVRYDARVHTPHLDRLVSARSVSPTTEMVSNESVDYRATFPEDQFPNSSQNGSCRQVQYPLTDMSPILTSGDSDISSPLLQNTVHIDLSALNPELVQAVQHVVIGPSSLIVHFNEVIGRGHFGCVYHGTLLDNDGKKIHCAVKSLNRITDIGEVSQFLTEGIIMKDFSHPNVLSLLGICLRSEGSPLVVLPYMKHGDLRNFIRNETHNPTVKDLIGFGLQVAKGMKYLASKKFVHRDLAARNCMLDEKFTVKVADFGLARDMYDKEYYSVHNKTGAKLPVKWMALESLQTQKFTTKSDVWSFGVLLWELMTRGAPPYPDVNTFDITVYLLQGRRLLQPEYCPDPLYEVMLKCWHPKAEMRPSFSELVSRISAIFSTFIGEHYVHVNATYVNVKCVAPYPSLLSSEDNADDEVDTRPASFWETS
Method: as §1, §2

PYK2 = PYK2 (Homo sapiens, UniProt Q14289); test: TR-FRET kinase assay, PYK2; conditions: Kinase Concentration 0.25 nM; 50 nM ULight-labeled substrate, 200 micromolar ATP, 2 hours
Chain of PYK2 (Q14289 whole entry, species assumed): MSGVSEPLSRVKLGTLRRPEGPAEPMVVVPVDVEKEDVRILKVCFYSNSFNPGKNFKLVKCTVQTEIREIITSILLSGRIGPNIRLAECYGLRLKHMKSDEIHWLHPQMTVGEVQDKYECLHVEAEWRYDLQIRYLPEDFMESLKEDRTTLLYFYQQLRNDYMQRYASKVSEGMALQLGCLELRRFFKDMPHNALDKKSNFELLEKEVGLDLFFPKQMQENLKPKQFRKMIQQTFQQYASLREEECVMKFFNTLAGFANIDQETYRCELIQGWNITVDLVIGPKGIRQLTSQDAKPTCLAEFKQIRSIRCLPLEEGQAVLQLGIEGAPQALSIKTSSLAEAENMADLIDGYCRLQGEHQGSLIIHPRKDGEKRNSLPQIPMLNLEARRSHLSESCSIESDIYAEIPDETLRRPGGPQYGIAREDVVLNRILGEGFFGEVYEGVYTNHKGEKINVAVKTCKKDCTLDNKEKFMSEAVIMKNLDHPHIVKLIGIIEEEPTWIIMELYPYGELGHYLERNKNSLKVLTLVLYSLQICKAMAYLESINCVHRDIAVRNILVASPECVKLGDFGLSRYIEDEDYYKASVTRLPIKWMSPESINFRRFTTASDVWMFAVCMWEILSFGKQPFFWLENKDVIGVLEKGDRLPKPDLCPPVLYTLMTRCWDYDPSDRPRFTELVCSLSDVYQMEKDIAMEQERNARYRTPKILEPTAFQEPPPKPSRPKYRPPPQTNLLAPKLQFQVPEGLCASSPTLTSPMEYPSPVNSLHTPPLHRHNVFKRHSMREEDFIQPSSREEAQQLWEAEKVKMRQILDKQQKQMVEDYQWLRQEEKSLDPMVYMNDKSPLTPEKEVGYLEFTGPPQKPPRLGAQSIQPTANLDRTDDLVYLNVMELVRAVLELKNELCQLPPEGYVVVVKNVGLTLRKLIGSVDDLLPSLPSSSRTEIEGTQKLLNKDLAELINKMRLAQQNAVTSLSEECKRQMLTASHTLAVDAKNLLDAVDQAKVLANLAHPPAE
Method: as §1, §2

TRKC (NTRK3) = TRKC (NTRK3) (Homo sapiens, UniProt Q16288); test: TR-FRET kinase assay, TRKC (NTRK3); conditions: Kinase Concentration 0.5 nM; 50 nM ULight-labeled substrate, 200 micromolar ATP, 2 hours
Method: as §1, §2

JAK3 = target: T2, JAK3 (Homo sapiens, UniProt P52333); test: TR-FRET kinase assay, JAK3; conditions: Kinase Concentration 0.5 nM; 50 nM ULight-labeled substrate, 200 micromolar ATP, 2 hours
T2 sequence (P52333 1-1124): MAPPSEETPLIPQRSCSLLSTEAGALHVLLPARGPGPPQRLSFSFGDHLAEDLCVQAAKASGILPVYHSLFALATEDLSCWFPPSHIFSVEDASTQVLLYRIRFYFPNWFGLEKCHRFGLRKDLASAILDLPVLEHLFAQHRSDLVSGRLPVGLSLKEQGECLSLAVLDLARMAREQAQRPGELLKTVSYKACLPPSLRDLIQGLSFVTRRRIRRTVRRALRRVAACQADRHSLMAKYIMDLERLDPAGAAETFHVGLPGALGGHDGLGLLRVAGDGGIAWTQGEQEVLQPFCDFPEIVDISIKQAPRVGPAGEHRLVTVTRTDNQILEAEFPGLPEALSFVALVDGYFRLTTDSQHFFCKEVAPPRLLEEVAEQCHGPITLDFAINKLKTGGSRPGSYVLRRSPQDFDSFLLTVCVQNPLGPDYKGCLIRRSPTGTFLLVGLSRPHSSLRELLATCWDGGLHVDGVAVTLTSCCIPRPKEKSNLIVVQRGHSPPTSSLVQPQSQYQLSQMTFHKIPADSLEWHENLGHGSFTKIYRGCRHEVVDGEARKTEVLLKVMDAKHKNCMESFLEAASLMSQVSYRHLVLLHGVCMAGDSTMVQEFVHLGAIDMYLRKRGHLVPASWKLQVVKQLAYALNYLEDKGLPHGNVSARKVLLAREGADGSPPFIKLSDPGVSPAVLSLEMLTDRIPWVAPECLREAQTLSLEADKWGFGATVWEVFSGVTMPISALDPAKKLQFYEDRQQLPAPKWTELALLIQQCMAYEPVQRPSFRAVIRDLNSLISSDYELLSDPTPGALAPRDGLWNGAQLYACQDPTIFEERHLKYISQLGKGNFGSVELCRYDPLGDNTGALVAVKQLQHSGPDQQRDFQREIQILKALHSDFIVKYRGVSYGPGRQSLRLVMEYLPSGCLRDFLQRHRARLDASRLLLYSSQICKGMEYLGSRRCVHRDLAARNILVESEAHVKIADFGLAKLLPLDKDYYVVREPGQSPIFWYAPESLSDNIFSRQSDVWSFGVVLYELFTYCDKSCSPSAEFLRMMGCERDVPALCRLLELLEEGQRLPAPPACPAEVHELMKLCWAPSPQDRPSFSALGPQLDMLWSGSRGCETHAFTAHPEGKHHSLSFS
Method: as §1, §2

Sequence: C AYE AYE AYE K EYA EYA EYA K AYA EYE R (CAYEAYEAYEKEYAEYAEYAKAYAEYER; tyrosine kinase substrate peptide) [BRB1]
- Signal to Noise ratio with BRB1 Peptide (EphB1): 29.9
- Signal to Noise ratio with BRB1 Peptide (FAK): 1.7
- Signal to Noise ratio with BRB1 Peptide (HER2): 1.4
- Signal to Noise ratio with BRB1 Peptide (LCK): 12.3
- Signal to Noise ratio with BRB1 Peptide (MET): 24.2
- Signal to Noise ratio with BRB1 Peptide (PYK2): 2.9
- Signal to Noise ratio with BRB1 Peptide (TRKC (NTRK3)): 6.4
- Signal to Noise ratio with BRB1 Peptide (JAK3): 16.1
